Here are results for 62 sequences from the supplement of paper PMC7877785.

± gives the uncertainty stated by the source.

The series is described as follows: self-splicing fitness, log relative to wild type (ln ratio); higher = more splicing; Tetrahymena group I intron in knt gene, E. coli kanamycin selection, DiMSum; sequences stand for … in CUCUCU…GGAGGGAAAAGUUAUCAGGCAUGCACCUGGUAGCUAGUCUUUAAACCAAUAGAUUGCAUCGGUUUAAAAGGCAAGACCGUCAAAUUGCGGGAAAGGGGUCAACAGCCGUUCAGUACCAAGUCUCAGGGGAAACUUUGAGAUGGCCUUGCAAAGGGUAUGGUAAUAAGCUGACGGACAUGGUCCUAACCACGCAGCCAAGUCCUAAGUCAACAGAUCUUCUGUUGAUAUGGAUGCAGUUCACAGACUAAAUGUCGGUCGGGGAAGAUGUAUUCUUCUCAUAAGAUAUAGUCGGACCUCUCCUUAAUGGGAGCUAGCGGAUGAAGUGAUGCAACACUGGAGCCGCUGGGAACUAAUUUGUAUGCGAAAGUAUAUUGAUUAGUUUUGGAGUACUCGUGGUCG
In short, it runs like this: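 A randomised library covering all eight P1ex-region intron nucleotides was built with the intron in the knt kanamycin-resistance gene on pET-22b(+) and held in E. coli BL21(DE3). Cells were grown overnight at 37°C or 30°C on LB agar, with or without 25 μg/mL kanamycin, plus 100 μg/mL carbenicillin, 50 μM IPTG and 0.2% rhamnose, and pooled colonies were amplicon-sequenced on an Illumina HiSeq 2500. DiMSum fitness is the error-weighted combination of wild-type-normalised replicate fold changes, kanamycin versus none.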

For the sequence CCACAGCAAUAUUACGGAGA, the “self-splicing fitness (ln)” value was -3.01 ± 0.21 (30 °C) and -1.77 ± 0.17 (37 °C).

Take CAUGAGCAAUAUUACGGGCU: the “self-splicing fitness (ln)” value reads like this: (30 °C) -3.53 ± 0.16; (37 °C) -2.11 ± 0.15.

As to UUGAAGCAAUAUUACGCAAU, the “self-splicing fitness (ln)” value was -2.4 ± 0.21 (30 °C) and -2.02 ± 0.16 (37 °C).

Consider CGCAAGCAAUAUUACGGGCC, for which the “self-splicing fitness (ln)” value was -1.55 ± 0.12 (30 °C) and -1.02 ± 0.17 (37 °C).

As to AGCCAGCAAUAUUACGCCUC, for the setting “37 °C”, the “self-splicing fitness (ln)” value is -0.728 ± 0.44.

Take AACAAGCAAUAUUACGGGUA: the “self-splicing fitness (ln)” value runs as follows: (30 °C) -0.841 ± 0.063; (37 °C) -0.307 ± 0.071.

As to UGUGAGCAAUAUUACGAGGU, the “self-splicing fitness (ln)” value reads like this: (30 °C) -3.52 ± 0.26; (37 °C) -2.55 ± 0.23.

For the sequence AGACAGCAAUAUUACGCCUG, the “self-splicing fitness (ln)” value (30 °C) is -1.88 ± 0.12 and the “self-splicing fitness (ln)” value (37 °C) turned out to be 0.171 ± 0.11.

Regarding UCGAAGCAAUAUUACGCAUG, the “self-splicing fitness (ln)” value is, setting by setting: (30 °C) -1.2 ± 0.085; (37 °C) -0.698 ± 0.1.

In the case of GCAAAGCAAUAUUACGUCCA, the “self-splicing fitness (ln)” value reads like this: (30 °C) -1.64 ± 0.12; (37 °C) -0.284 ± 0.11.

Take GCCCAGCAAUAUUACGCUCA: the “self-splicing fitness (ln)” value (30 °C) is -0.789 ± 0.08 and the “self-splicing fitness (ln)” value (37 °C) is -0.055 ± 0.1.

Consider UCACAGCAAUAUUACGAUCC, for which the “self-splicing fitness (ln)” value was -3.08 ± 0.2 (30 °C) and -2.03 ± 0.22 (37 °C).

As for CUCUAGCAAUAUUACGCUUU, the “self-splicing fitness (ln)” value was -3.13 ± 0.28 (30 °C) and -2.08 ± 0.22 (37 °C).

In the case of AGAUAGCAAUAUUACGAAGA, the “self-splicing fitness (ln)” value (37 °C) was -1.12 ± 0.39.

With UAAAAGCAAUAUUACGCCAU, the “self-splicing fitness (ln)” value was -3.62 ± 0.26 (30 °C) and -2.82 ± 0.3 (37 °C).

With GAGGAGCAAUAUUACGGAUC, the “self-splicing fitness (ln)” value is, setting by setting: (30 °C) -1.61 ± 0.16; (37 °C) -0.13 ± 0.17.

With GAACAGCAAUAUUACGCGGC, the “self-splicing fitness (ln)” value runs as follows: (30 °C) -4 ± 0.43; (37 °C) -1.6 ± 0.23.

Turning to UCUCAGCAAUAUUACGCGCC, the “self-splicing fitness (ln)” value (30 °C) is -3.46 ± 0.25 and the “self-splicing fitness (ln)” value (37 °C) was -1.25 ± 0.19.

Regarding AGUGAGCAAUAUUACGCCGA, the “self-splicing fitness (ln)” value was -1.82 ± 0.31 (30 °C) and -2.36 ± 0.4 (37 °C).

On to UGAUAGCAAUAUUACGGUGU, for which the “self-splicing fitness (ln)” value reads like this: (30 °C) -3.45 ± 0.18; (37 °C) -3.09 ± 0.24.

As for UCAUAGCAAUAUUACGAUCA, the “self-splicing fitness (ln)” value (30 °C) was -1.3 ± 0.13 and the “self-splicing fitness (ln)” value (37 °C) is -0.941 ± 0.16.

Take UAGAAGCAAUAUUACGUCAG: the “self-splicing fitness (ln)” value runs as follows: (30 °C) -0.574 ± 0.078; (37 °C) -0.0756 ± 0.092.

With CUUGAGCAAUAUUACGCAGG, the “self-splicing fitness (ln)” value is -3.46 ± 0.25 (30 °C) and -3.55 ± 0.35 (37 °C).

GCCCAGCAAUAUUACGCUGA: the “self-splicing fitness (ln)” value was -1.08 ± 0.13 (30 °C) and -0.784 ± 0.18 (37 °C).

Regarding CCAUAGCAAUAUUACGGAGG, the “self-splicing fitness (ln)” value was -3.57 ± 0.21 (30 °C) and -0.997 ± 0.15 (37 °C).

On to UGACAGCAAUAUUACGGGCC, for which the “self-splicing fitness (ln)” value reads like this: (30 °C) -3.34 ± 0.22; (37 °C) -2.23 ± 0.27.

On to AGUCAGCAAUAUUACGGGGG, for which the “self-splicing fitness (ln)” value is -3.61 ± 0.21 (30 °C) and -2.6 ± 0.22 (37 °C).

For CAUCAGCAAUAUUACGAGGA, the “self-splicing fitness (ln)” value reads like this: (30 °C) -3.13 ± 0.23; (37 °C) -2.6 ± 0.19.

For the sequence CCUUAGCAAUAUUACGACCC, the “self-splicing fitness (ln)” value (30 °C) is -2.95 ± 0.44.

For the sequence CGGAAGCAAUAUUACGGCUC, the “self-splicing fitness (ln)” value (30 °C) is -4.04 ± 0.25 and the “self-splicing fitness (ln)” value (37 °C) was -2.51 ± 0.24.

In the case of CUCGAGCAAUAUUACGCAAG, the “self-splicing fitness (ln)” value (30 °C) was -3.95 ± 0.43 and the “self-splicing fitness (ln)” value (37 °C) is -1.35 ± 0.3.

For the sequence GGCGAGCAAUAUUACGGCUU, the “self-splicing fitness (ln)” value is, setting by setting: (30 °C) -0.682 ± 0.2; (37 °C) -0.0819 ± 0.35.

Regarding CUAAAGCAAUAUUACGCUCC, the “self-splicing fitness (ln)” value was -3.15 ± 0.29 (30 °C) and -2.29 ± 0.35 (37 °C).

As for GGUGAGCAAUAUUACGGGAA, the “self-splicing fitness (ln)” value (30 °C) is -1.89 ± 0.3 and the “self-splicing fitness (ln)” value (37 °C) was -2.5 ± 0.48.

In the case of AAUGAGCAAUAUUACGGAGU, the “self-splicing fitness (ln)” value (37 °C) was -0.994 ± 0.44.

Regarding GGGAAGCAAUAUUACGUAGG, the “self-splicing fitness (ln)” value (30 °C) is -3.64 ± 0.32 and the “self-splicing fitness (ln)” value (37 °C) was -0.93 ± 0.11.

For the sequence UUGCAGCAAUAUUACGGAGG, the “self-splicing fitness (ln)” value (30 °C) is -2.94 ± 0.16 and the “self-splicing fitness (ln)” value (37 °C) was -2.73 ± 0.24.

CAGGAGCAAUAUUACGUAAC: the “self-splicing fitness (ln)” value (30 °C) was -3.33 ± 0.26 and the “self-splicing fitness (ln)” value (37 °C) was -2.74 ± 0.32.

With CGGCAGCAAUAUUACGGUAA, the “self-splicing fitness (ln)” value was -2.56 ± 0.13 (30 °C) and -2.33 ± 0.13 (37 °C).

Consider AAACAGCAAUAUUACGGCAU, for which the “self-splicing fitness (ln)” value is -0.814 ± 0.066 (30 °C) and -0.78 ± 0.08 (37 °C).

As for CCAGAGCAAUAUUACGCGAA, the “self-splicing fitness (ln)” value (30 °C) was -4.06 ± 0.4 and the “self-splicing fitness (ln)” value (37 °C) was -2.15 ± 0.29.

For the sequence CAUUAGCAAUAUUACGAGCG, the “self-splicing fitness (ln)” value is, setting by setting: (30 °C) 0.0198 ± 0.086; (37 °C) 0.256 ± 0.098.

Regarding AUGGAGCAAUAUUACGUCAG, the “self-splicing fitness (ln)” value is, setting by setting: (30 °C) -2.47 ± 0.32; (37 °C) -1.41 ± 0.44.

With AAUAAGCAAUAUUACGUUAG, the “self-splicing fitness (ln)” value by setting is: (30 °C) -4.52 ± 0.19; (37 °C) -2.69 ± 0.17.

As for GCCUAGCAAUAUUACGCGGG, the “self-splicing fitness (ln)” value was -1.74 ± 0.17 (30 °C) and -3.1 ± 0.43 (37 °C).

In the case of CGGCAGCAAUAUUACGCAGG, the “self-splicing fitness (ln)” value was -2.02 ± 0.093 (30 °C) and -1.33 ± 0.12 (37 °C).

CGCGAGCAAUAUUACGCACG: the “self-splicing fitness (ln)” value (37 °C) is -2.14 ± 0.46.

Take CACAAGCAAUAUUACGCUAU: the “self-splicing fitness (ln)” value is -4.42 ± 0.26 (30 °C) and -1.58 ± 0.14 (37 °C).

As for UCGAAGCAAUAUUACGAUUA, the “self-splicing fitness (ln)” value was -1.19 ± 0.12 (30 °C) and -0.794 ± 0.11 (37 °C).

On to UCCUAGCAAUAUUACGAUGG, for which the “self-splicing fitness (ln)” value is -3.64 ± 0.23 (30 °C) and -2.15 ± 0.21 (37 °C).

Regarding UGUAAGCAAUAUUACGCGGA, the “self-splicing fitness (ln)” value (30 °C) was -1.91 ± 0.26 and the “self-splicing fitness (ln)” value (37 °C) is -1.29 ± 0.2.

Take ACUGAGCAAUAUUACGGCGU: the “self-splicing fitness (ln)” value was -1.07 ± 0.079 (30 °C) and 0.0319 ± 0.097 (37 °C).

As for AGCCAGCAAUAUUACGGCAC, the “self-splicing fitness (ln)” value (30 °C) was -1.26 ± 0.13 and the “self-splicing fitness (ln)” value (37 °C) was -0.402 ± 0.15.

In the case of CUAAAGCAAUAUUACGCAAA, the “self-splicing fitness (ln)” value (30 °C) was -3.47 ± 0.25.

With CCUCAGCAAUAUUACGGGCG, the “self-splicing fitness (ln)” value runs as follows: (30 °C) -1.59 ± 0.069; (37 °C) -0.619 ± 0.074.

UACUAGCAAUAUUACGUCAG: the “self-splicing fitness (ln)” value reads like this: (30 °C) -1.72 ± 0.2; (37 °C) -1.43 ± 0.21.

For UAAAAGCAAUAUUACGGAGU, the “self-splicing fitness (ln)” value (30 °C) is -3.65 ± 0.2 and the “self-splicing fitness (ln)” value (37 °C) is -2.45 ± 0.19.

With AGCUAGCAAUAUUACGCGCG, the “self-splicing fitness (ln)” value runs as follows: (30 °C) -0.92 ± 0.18; (37 °C) -0.121 ± 0.17.

Regarding GUGUAGCAAUAUUACGUGAC, the “self-splicing fitness (ln)” value is -1.35 ± 0.11 (30 °C) and -1.29 ± 0.19 (37 °C).

GGGUAGCAAUAUUACGUUAC: where the note is “37 °C”, the “self-splicing fitness (ln)” value is -4.17 ± 0.46.

Turning to GGCCAGCAAUAUUACGCCUC, the “self-splicing fitness (ln)” value (30 °C) was -0.497 ± 0.13 and the “self-splicing fitness (ln)” value (37 °C) was -0.06 ± 0.15.

With UCUUAGCAAUAUUACGCUUU, the “self-splicing fitness (ln)” value (37 °C) was -2.47 ± 0.32.
